Measured values reported in the RNAGym collection of RNA variant scans (doi:10.1073/pnas.2313332121).

B1: TPR t1 (parent)
chain: GACCAAUCUGCCCUCAGAGCUCGAGAACAUCUUCGGAUGCAGAGGAGGCAGGCUUCGGUGGCGCGAUAGCGCCAACGUCCUCAACCUCCAAUGCAUCCCACCACAUGAUGAUGCCUGAAGAGCCUUGGUUUUUUG

Variants of: B1
Assay: polymerase ribozyme fitness, log enrichment relative to wild type (log ratio); higher = more active; in vitro selection for triplet polymerase activity
Outline: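 Libraries of mutants in each subunit of a heterodimeric triplet polymerase ribozyme were generated by PCR and transcribed. In triplicate, each went through one in vitro selection round: annealing with biotinylated primer, partner subunit and triplets; frozen incubation at −7 °C; gel excision of extended constructs; streptavidin-bead capture; RT-PCR. Fitness, taken from Illumina sequencing of input and output libraries, is the logarithm of a genotype's enrichment over wild-type enrichment, averaged across replicates with inverse-variance weights. The logarithm is base 2, and genotypes needed ≥10 input reads and ≥1 read per output to be kept.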

| Variant | polymerase ribozyme fitness (log ratio) |
| --- | --- |
| GACCAAUCUGCCCUCAGAGCUCGAGAACGUCCUCGGAUGCAGAGGAGGCAGGCUUCGGUGGCGCGAUAGCGCCAACGUCCUCAACCUCCAAUGCAUCCCACCACAAGAUGAUGCCUGAAGAGCCUUGGUUUUUUG | -2.24 |
| GACCAAUCUGCCCUCAGAGCUCGAGAACGUCUUCGGAUGCAGAGGAGGCAGGCUUCGGUGGCGCGAUAGCGCCAACGUCCUCAACCCCCAAUGCAUCCCACCACAUGAUGAUUCCUGAAGCGCCUUGGUUUUUUG | -3.46 |
| GACCAAUCUGCCCUCAGAGCUCGAGAACGUCUUCGGAUGCAGAGGAGGCAGGCUGCGAUGGCGCGAUAGCGGCAACGUCCUCAACCUCCAAUGCAUCCCACCACAUGAUGAUGCCUGAAGAGCCUUGGUUCUGUG | -2.75 |
| GACCAAUCUGCCCUCAGAGCUCGAGAACGUCUUCGGAGGCAGUGGAGGCAGGCUUCGGUGGCGCGAUAGCGCCAACGUCCUCAACCUCCCAUGCAUCCCACCACAUGAUGAUUCCUGAAGAGCCCUGGUUUUUUG | -3.96 |
| GACCAAUCUGCCCUCAGAGCUCGAGAACUUCUUCGGAUGCAGAGGAGGCAGGGUUCGGUGGCGCGAUAGCGCCAACGUCCACAACCUCCAAUGCAUCCCACCACAUGAUGAUGCCUGAAGUGCCUUGGUUUAUUG | -1.75 |
| GACCAAUCUGCCCUCAGAGCUCGAGAACUUCUUCGGAUGCAGAGGAGGUAGGCUUCGGUGGCGUGAUAGCGCCAACGUCCUCAACCUCCAAUGCAUCCCACCACAAGAUGAUGCAUGAAGAGCCUUGGUUUCUUG | -2.46 |
| GACCAAUCUGCCCUCAGAGCUCGAGAACUUCUUCGGAUGCAGAGGAGGCAGGCUUCGGUGGCGCGAUAGCGCCAACGUCCUCAACCUCCAAUGCAUCCCACCACAUGAUGAUGGCUGAAGAGCCUUGGUUUUUUG | -4.29 |
| GACCAAUCUGCCCUCAGAGCUCGAGAACGUCUUCGGAUGCAGAGGAGGCAGGCUUCGGUGGCGCGAUAUCGCCAACGUCCUCAACCUCCAAUGCAUCCCACCACAUGAUGAUGCCUGAAGAGCCUUGGUUUUUUG | -0.507 |
| GACCAAUCUGCCCUCAGAGCUCGAGAACUUCUUCGGAUGCAGUGGAGGCAGGCUUCGGUGGCGCGAUAGCGCCAACGUCCUCAACCUCCAAUGCAUCCCACCACAUGAUGAUGCCUGAAGAGCCUUGGUUUUUUG | -3.3 |
| GACCAAUCUGCCCUCAGAGCUCGAGAACUUCUUCGGAUGCAGAGGAGCCAGGCUUCGGUGGCGCGAUAGCGCCAACGUCCUCAACCUCCAAUGCAUCCCACCACAUGAUGAUCCCUGAAGAGCCUUGGAUUUUUG | -4.71 |
| GACCAAUCUGCCCUCAGAGCUCGAGAACUUCUUCGGAUGCAGAGGCGGCAGGCUUCGGUGGCGCGAUAGCGCCAACGUCCUCAACCUCCAAUGCAUCCCACCACAUGAUGAUGCCUCAAGAGCCUUGGUUUUUUG | -4.13 |
| GACCAAUCUGCCCUCAGAGCUCGAGAACGUCUUCGGAUGCACAGGAGGCAGGCUUCGGUGGCGCGAUAGCGCCAACGUCCUCAACCUCCAAUGCAUCCCACCACAUGAUGAUGCCUGAAGAGCCUUGGUUUUUUG | -2.66 |
| GACCAAUCUGCCCUCAGAGCUCGAGAACUUCUUCGGAUGCAGAGGAGGCAGGCUUCGGUGGCGCGAUAGCGCCAACGUCCUCAACCUCCAAUGCAUCCCAACACAUGAUAAUGCCUGGAGGGCCUUGGUUUUUUG | -4.96 |
| GACCAAUCUGCCCUCAGAGCUCGAGAACUUCUUCGGAUGCAGAGGAGGCAGGCUUCGGUGGGGCGAUAGCGCCAACGUCCUCAACCUCCAAUGCAUCCCACCACAUGAUGAUGCCUGAAGAGCCUUGGUUUUUUG | -2.45 |
| GACCAAUCUGCCCUCAGAGCUCGAGAACUUCUUCGGAUGCAGAGGAGCCAGGCUUCGGUGGCGCGAUAGCGCCAACGUCCUGAACCUCCAAUGCAUCCCACCACAUGAUGAUGCCUGUAGAGCCUUGGUUUUUUG | -2.03 |
| GACCAAUCUGCCCUCAGAGCUCGAGAACUUCUUCGGAUGCAGAGGAGGCAGGCUUCGGUGGCGCGAUAGCGCCAACGUCCUAAACCUCCAAUGCAUCCCACCACAUGAUGAUGCCUGAAGAGCCUUGGUUUUUUG | -2.3 |
| GACCAAUCUGCCCUCAGAGCUCGAGAACUUCUUCGGAUGCAGAGGAGGCAGGCUUCGGUGGCGCGAUAGCGCAAACGUCCUCAACCUCCAAUGCAUCACACCACAUGAUGAUGCCUGAAGAGCCUUGGUUUUUUG | -4.9 |
| GACCAAUCUGCCCUCAGAGCUCGAGAACGUCUUCGGAUGCAGAGGAGGCAGGCUUCGGUGGCACGAUAGCGCCAACGUCCUCAACCUACAAUGCAUCCCACCACAUGAUGAUGCCUGAAGAGCCUUGGUUUUUUG | -2.37 |
| GACCAAUCUGCCCUCAGAGCUCGAGAACUUCUUCGGAUGUAGAUGAGGCAGGCUUCGGUGGCGCGAUAGCGCCAACGUCCUCAAUCUCAAAUGGAUCCCACCACAUGAUGAUGCCUGAAGAGCCUUGGUUUUUUG | -4.32 |
| GACCAAUCUGCCCUCAGAGCUCGAGAACUUCUUCGGAUGUAGAGGAGGCAGGCUUCGGUGGAGCGAUAGCGCCAACGUCCUCCACCUCCAAUGCAUCCCACCACAUGAUGAUGCCUGAAGAGCCUUGGUUUUUUG | -3.08 |
| GACCAAUCUGCCCUCAGAGCUCGAGAACGUCUUCGGAUGCAGAGGAGGCAGGCUUCGGUGGCGCGAUAGCGCCAACGUCCUCAACCUCCAAUGCAUCCCACCACAUGAUGAUGCCGGAAGAGCCUUGGUUUUUUG | -2.77 |

| Variant | polymerase ribozyme fitness (log ratio) |
| --- | --- |
| GACCAAUCUGCCCUCAGAGCUCGAGAACUUCUUCGGAUGCAGAGGAGGCAGGCUUCGGUGGCGCGAUAGCGCCAACGUCCUCAACCUCCAAUGCAUCCCACCACAUGAUGCUGCGUGAAGAGCCGUGGUUUUAUG | -4.49 |
| GACCAAUCUGCCCUCAGAGCUCGAGAACGUCUUCGGAUGCAGAGGAGGCAGGCUUCGGUAGCGCGAUAGCGCCAACGUCCUCAACUUCCAAUGCAUCCCACCACAUGAUGAUGCCUGAAGAGCCUUGGUUUUUUG | -2.06 |
| GACCAAUCUGCCCUCAGAGCUCGAGAACUUCUUCGGAUGCAGAGGAGGCAGGUUUCGGUGGCGCGAUAGCGCCAACGUUCUCAACCUCCAAUGCAUCCCACCACAUGAUGCUGCCUGAACAGCCUUGGUUUUUUG | -3.26 |
| GACCAAUCUGCCCUCAGAGCUCGAGAACUUCUUCGGAUGCAGAGGAGGCUGGCUUCGGUGGCGCGAUAGCGCCAACGACCUCAACCUCCAAUCCAUCCCACCACAUGAUGAUGCCUGAAGAGCCUUGGUUUUUUG | -4.11 |
| GACCAAUCUGCCCUCAGAGCUCGAGAACUUCUUCGGAUGCAGAGGAGGCAGGACUCGGUGGCGCGAUAGCGCCAAUGUCCUCAAACUCCAAUGCAUCCCACCACAUGAUGAUGCCUGAAGAGCCUUGGUUCUUUG | -3.17 |
| GACCAAUCUGCCCUCAGAGCUCGAGAACUUCUUCGGAUGCAGAGGAGGCAGGCUUCGGUGGUGCGAUAGCGCCCACGUCCCCAACCUCCAAUGCAUCCCACCACAUGAUGAUGCCUGAAGAGCAUUGGUUUUUUG | -1.11 |
| GACCAAUCUGCCCUCAGAGCUCGAGAACUUCUUCGGAUGCAGAGGAGGCAGGCUUCGGUGGCGCGAUAGCGCCAAUGACCUCAACCUCCAAUGCAUCCCACCACAUGAUGAUGCCUGAAGAGCCUUGGUUUUUUG | -2.22 |
| GACCAAUCUGCCCUCAGAGCUCGAGAACUUCUUCGGAUGCAGAGGAGGCAGGCUUCGGUGGCGCGAUAGCGUCAACGUCCUCACCCCCCAAUGCAUCCCACCACAUGAUGACGCCUGAAGAGCCUUGGUUUUUUG | -1.31 |
| GACCAAUCUGCCCUCAGAGCUCGAGAACUUCUUCGGAUGCAGAGGAGGCAGGCUUCGGUGGCGCGAUAGCGCCAACGUCCUCAACCUCCAAUGCAUCCGACCACAUGAUGAUGCCUGAGCAGCCUUGGUUUUUUG | -6.66 |
| GACCAAUCUGCCCUCAGAGCUCGAGAACGUCUUCGGAGGCAGAGGAGGCAGGCUUCGGUGGCGCGAUAGCGCGAACGUCCUUAACCUCCAAUGCAUCCCGCCACAUGAUGAUGCGUGAAGAGCCUUGGUUUUUUG | -7.25 |
| GACCAAUCUGCCCUCAGAGCUCGAGAACUUCUUCGGAUGCAGAGGAGGCAGGCUUCGGUGGCGCGAUAGUGCCAACGUCCUCAACCUCCAAUGCAUCCCACCACAUGAUGAUGCCUGAAGAGCCUUGGUUUUUUG | -2.15 |
| GACCAAUCUGCCCUCAGAGCUCGAGAACUUCUUCGGAUGCAGAGGAAGCAGGCUUCGGUGGCGCGAUAGCGCCAACGUCCUCAACGUCCAAUGCAUCCCACCACAUGAUGAUGCCUGAAGAGCCUUGGUUUUUUG | -2 |
| GACCAAUCUGCCCUCAGAGCUCGAGAACUUCUUCGGAUGCAGAGGAGGCAGGCUUCGGUGGCGCGAUAGCGCUAACGUCCUCAACCUCCAAUGCAUCUCACCACAUGAUGCUGCCUGAAGAGCCUUGGUUUUUUG | -3.36 |
| GACCAAUCUGCCCUCAGAGCUCGAGAACUUCUUCGGAUGCAGAUGAGGCAGGCUUCGGUAGCGCGAUAGCGCCAACGUCCUCAACCUCCAAUGCAUCCCACCACAUGAUGAUUCCUGGAGAGCCUUGGUUGUUUG | -5.8 |
| GACCAAUCUGCCCUCAGAGCUCGAGAACUUCUUCGGAUGCAGAGGAUGCAGGCUUCGGUGGCGCGAUAGCGCCAACGUCCUCAACCUCCAAUGCAUCCCACCACAUGAUGAUGCCUGAAGAGCCUUGGUUUUUUG | -3.05 |
| GACCAAUCUGCCCUCAGAGCUCGAGAACUUCUUCGGAUGCAGAGGAGGCAGGCUUCGGUGGUGCGAUAGCGCCAACGUCCUCAACCUCGAAUGCAUCCCACCACAUGAUGAUGCCUGAAGAGCCUUGGUUUUUUG | -3 |
| GACCAAUCUGCCCUCAGAGCUCGAGAACGUCCUCGGAUGCAUAGGACGCAGGCUUCGGUGGCGCGAUAGCGCCAACGUCCUCAACCUCCAAUGCAUCCCACCACAUGAUGAUGCCUGAAGAGCCUUGGUUUUUUG | -4.18 |
| GACCAAUCUGCCCUCAGAGCUCGAGAACGUCUUCGGAUGCAGAGCAGGCAGGCUUCGGUGGCGCGAUAGCGCCAACGUCCUCAACCUCCAAUGCAUCCCACCACAAGAUGAUGCCUGAAGAGCCUUGGUUUUUUG | -1.67 |
| GACCAAUCUGCCCUCAGAGCUCGAGAACGUCUUCGGAUGCAGAGGAGGCAGGCUUCGGUGGCGCGAUAGCACCAACGUCCUCAACCUCCAACGCAUCCCACCACAUGAUGAUGCCUGAAGAGCCUUGGCUUUUUG | -4.75 |
| GACCAAUCUGCCCUCAGAGCUCGAGAACUUCUUCGGAUGCAGAGGAGACAGGCUUCGGUGGCGCGAUAGCGCCAACGUCCUCAACCUCCAAUGCAUCCCACCACAUGAUGCUGCCUGAAGAGCCUUGGUUUUUUG | -2.11 |
| GACCAAUCUGCCCUCAGAGCUCGAGAACUUCUUCGGAUGCAGAGGAGGCAGGCUUCGGUGGCGCGAUAGCGCCAAGGUCCUCAACAUCCAAUGCAUCCCACCACAUGAUGAUGCCUGAAGAGCCUUGGUUUUUUG | -2.31 |
